From article doi:10.1101/2024.12.02.626350 (bioRxiv, 2024) come the findings set out here.

B2: nicotinic acetylcholine receptor (nAChR) β subunit, muscle-type, Torpedo (natural protein)
chain: SVMEDTLLSVLFETYNPKVRPAQTVGDKVTVRVGLTLTNLLILNEKIEEMTTNVFLNLAWTDYRLQWDPAAYEGIKDLRIPSSDVWQPDIVLMNNNDGSFEITLHVNVLVQHTGAVSWQPSAIYRSSCTIKVMYFPFDWQNCTMVFKSYTYDTSEVTLQHALDAKGEREVKEIVINKDAFTENGQWSIEHKPSRKNWRSDDPSYEDVTFYLIIQRKPLFYIVYTIIPCILISILAILVFYLPPDAGEKMSLSISALLAVTVFLLLLADKVPETSLSVPIIIRYLMFIMILVAFSVILSVVVLNLHHRSPNTHTMPNWIRQIFIETLPPFLWIQRPVTTPSPDSKPTIISRANDEYFIRKPAGDFVCPVDNARVAVQPERLFSEMKWHLNGLTQPVTLPQDLKEAVEAIKYIAEQLESASEFDDLKKDWQYVAMVADRLFLYVFFVICSIGTFSIFLDASHNVPPDNPFA

Assay [1] addresses B2. Description: cryo-EM structure.
Assay [2] has as its target T1, nicotinic acetylcholine receptor (nAChR) δ subunit, muscle-type, Torpedo (Tetronarce californica, UniProt P02718 22-522).
T1 sequence: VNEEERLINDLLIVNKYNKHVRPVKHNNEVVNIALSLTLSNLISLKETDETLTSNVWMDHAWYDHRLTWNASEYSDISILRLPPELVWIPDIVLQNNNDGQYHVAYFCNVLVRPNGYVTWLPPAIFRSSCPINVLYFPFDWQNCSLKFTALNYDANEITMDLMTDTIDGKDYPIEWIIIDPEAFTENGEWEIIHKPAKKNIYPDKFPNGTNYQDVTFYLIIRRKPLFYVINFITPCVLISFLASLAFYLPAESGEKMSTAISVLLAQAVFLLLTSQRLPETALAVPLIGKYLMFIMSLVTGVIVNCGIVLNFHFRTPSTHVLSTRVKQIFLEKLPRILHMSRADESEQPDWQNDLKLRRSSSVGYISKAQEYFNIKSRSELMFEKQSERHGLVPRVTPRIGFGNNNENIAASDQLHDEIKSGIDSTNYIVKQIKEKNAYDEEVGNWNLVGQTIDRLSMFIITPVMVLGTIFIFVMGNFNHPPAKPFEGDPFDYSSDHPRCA
In words: cryo-EM structure.

B1: nicotinic acetylcholine receptor (nAChR) α subunit, muscle-type, Torpedo (natural protein)
chain: SEHETRLVANLLENYNKVIRPVEHHTHFVDITVGLQLIQLISVDEVNQIVETNVRLRQQWIDVRLRWNPADYGGIKKIRLPSDDVWLPDLVLYNNADGDFAIVHMTKLLLDYTGKIMWTPPAIFKSYCEIIVTHFPFDQQNCTMKLGIWTYDGTKVSISPESDRPDLSTFMESGEWVMKDYRGWKHWVYYTCCPDTPYLDITYHFIMQRIPLYFVVNVIIPCLLFSFLTGLVFYLPTDSGEKMTLSISVLLSLTVFLLVIVELIPSTSSAVPLIGKYMLFTMIFVISSIIITVVVINTHHRSPSTHTMPQWVRKIFIDTIPNVMFFSTMKRASKEKQENKIFADDIDISDISGKQVTGEVIFQTPLIKNPDVKSAIEGVKYIAEHMKSDEESSNAAEEWKYVAMVIDHILLCVFMLICIIGTVSVFAGRLIELSQEG
With B1, the binding result in assay [1] is given as “binds”.

In the case of B2, the binding result in assay [2] is “binds”.
